# Results: US20070036793A1, “Methods for use of an lkb1/strad7mo25 complex” (priority 2003, published 2007)
# T1: N-terminal Flag epitope tagged wild type LKB1 (mouse, UniProt Q9WTK7 1-436)
# T1 construct: not restated for the HeLa lines; also called Flag-LKB1; WT LKB1
# T1 sequence: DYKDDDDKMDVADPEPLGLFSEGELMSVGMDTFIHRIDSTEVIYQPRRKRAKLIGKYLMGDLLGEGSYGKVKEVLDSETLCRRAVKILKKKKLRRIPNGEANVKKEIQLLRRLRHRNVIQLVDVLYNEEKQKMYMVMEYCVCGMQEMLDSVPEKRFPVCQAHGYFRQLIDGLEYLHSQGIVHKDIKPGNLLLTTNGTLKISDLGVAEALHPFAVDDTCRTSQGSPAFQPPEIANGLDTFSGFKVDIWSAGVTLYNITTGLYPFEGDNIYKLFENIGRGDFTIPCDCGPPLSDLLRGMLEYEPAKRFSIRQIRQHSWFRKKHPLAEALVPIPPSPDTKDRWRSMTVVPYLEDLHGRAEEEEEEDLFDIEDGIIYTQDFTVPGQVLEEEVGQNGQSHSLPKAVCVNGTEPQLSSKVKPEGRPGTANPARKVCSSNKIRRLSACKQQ
# T2: Flag-tagged STRADβ (human, UniProt Q9C0K7 1-418)
# T2 construct: pCMV5 vector; also called Flag-STRADβ; FLAG-STRADβ
# T2 sequence: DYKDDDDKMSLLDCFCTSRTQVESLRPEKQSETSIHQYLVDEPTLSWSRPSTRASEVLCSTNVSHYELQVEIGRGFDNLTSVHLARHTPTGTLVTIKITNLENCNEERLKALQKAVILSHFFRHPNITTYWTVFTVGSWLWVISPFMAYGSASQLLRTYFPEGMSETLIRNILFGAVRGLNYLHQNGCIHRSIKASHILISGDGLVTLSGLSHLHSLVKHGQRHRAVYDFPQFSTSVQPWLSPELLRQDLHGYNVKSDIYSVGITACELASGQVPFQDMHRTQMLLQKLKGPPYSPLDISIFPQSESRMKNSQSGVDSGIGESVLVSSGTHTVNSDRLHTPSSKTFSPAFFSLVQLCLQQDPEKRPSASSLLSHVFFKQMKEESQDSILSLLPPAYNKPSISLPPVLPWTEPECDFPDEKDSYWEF
# T3: Flag-tagged STRADα (human, UniProt Q7RTN6 1-431, limits assumed)
# T3 construct: pCMV5 vector; also called Flag-STRADα; FLAG-STRADα
# T3 sequence: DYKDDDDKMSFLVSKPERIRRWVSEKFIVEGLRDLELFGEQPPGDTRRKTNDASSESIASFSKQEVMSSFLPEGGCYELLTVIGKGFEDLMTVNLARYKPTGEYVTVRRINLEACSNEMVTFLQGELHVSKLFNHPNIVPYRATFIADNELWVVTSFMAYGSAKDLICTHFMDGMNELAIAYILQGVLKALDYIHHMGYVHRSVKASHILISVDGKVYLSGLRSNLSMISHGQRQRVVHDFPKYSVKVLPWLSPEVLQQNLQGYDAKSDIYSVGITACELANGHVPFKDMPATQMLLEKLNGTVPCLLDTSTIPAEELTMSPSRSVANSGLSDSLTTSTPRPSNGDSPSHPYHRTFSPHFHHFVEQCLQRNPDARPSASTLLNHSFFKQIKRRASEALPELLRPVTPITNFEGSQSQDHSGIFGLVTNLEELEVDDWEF
# T4: GST-STRADα lacking the last 3 amino acids (Trp-Glu-Phe) (human, UniProt Q7RTN6 1-428)
# T4 construct: not shown: glutathione S-transferase (GST) tag, N-terminal, pEBG-2T vector
# T4 sequence: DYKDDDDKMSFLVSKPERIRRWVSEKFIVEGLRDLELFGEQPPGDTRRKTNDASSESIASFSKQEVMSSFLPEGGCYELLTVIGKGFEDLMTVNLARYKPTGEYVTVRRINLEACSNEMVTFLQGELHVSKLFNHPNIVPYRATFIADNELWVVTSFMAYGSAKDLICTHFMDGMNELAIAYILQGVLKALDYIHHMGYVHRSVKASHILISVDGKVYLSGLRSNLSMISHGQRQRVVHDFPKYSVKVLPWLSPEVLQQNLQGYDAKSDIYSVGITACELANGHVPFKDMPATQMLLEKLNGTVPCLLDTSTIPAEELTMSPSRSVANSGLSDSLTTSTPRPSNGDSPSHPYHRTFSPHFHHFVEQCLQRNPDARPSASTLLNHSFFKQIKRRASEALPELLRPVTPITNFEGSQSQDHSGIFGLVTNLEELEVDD
# B1: GST-STRADα lacking the C-terminal 88 residues (other, human)
# chain: DYKDDDDKMSFLVSKPERIRRWVSEKFIVEGLRDLELFGEQPPGDTRRKTNDASSESIASFSKQEVMSSFLPEGGCYELLTVIGKGFEDLMTVNLARYKPTGEYVTVRRINLEACSNEMVTFLQGELHVSKLFNHPNIVPYRATFIADNELWVVTSFMAYGSAKDLICTHFMDGMNELAIAYILQGVLKALDYIHHMGYVHRSVKASHILISVDGKVYLSGLRSNLSMISHGQRQRVVHDFPKYSVKVLPWLSPEVLQQNLQGYDAKSDIYSVGITACELANGHVPFKDMPATQMLLEKLNGTVPCLLDTSTIPAEELTMSPSRSVANSGLSDSLTTSTPRPSNGDSPSHP
# notes: not shown: glutathione S-transferase (GST) tag, N-terminal, pEBG-2T vector
# Key:
# [1] = target: T1, N-terminal Flag epitope tagged wild …; assay: GST pull-down from co-transfected 293 cells
# Procedure: (§1) FIG. 7. Binding of LKB1 to STRADα creates novel binding site(s) for MO25α. […] Similar results were obtained in 3 separate experiments.
# (§2) Expression of GST-fusion proteins in 293 cells and affinity purification. 10-cm diameter dishes of 293 cells were transiently transfected with 3 to 10 μg of the pEBG-2T constructs using a modified calcium phosphate method (Alessi et al., 1996). 36 h post-transfection, the cells were lysed and the clarified lysates were incubated for 1 h on a rotating platform with glutathione-Sepharose (25 μl/dish of lysate) previously equilibrated in lysis Buffer. The beads were washed 4 times with lysis Buffer containing 150 mM NaCl and twice with Buffer A. For immunoblotting analysis, the beads were then resuspended in SDS sample Buffer after this step to give a final volume of slurry of 75 μl, and the samples immunoblotted as described above. For protein kinase assays and gel electrophoresis, the beads were washed a further twice with Buffer A containing 0.27 M sucrose and the proteins were eluted from the resin by incubation with the same buffer containing 20 mM of glutathione. The beads were then removed by filtration through a 0.44-μm filter and the eluate divided into aliquots and stored at −80° C.
# [2] = target: B1; assay: GST pull-down from co-transfected 293 cells
# Procedure: as §1, §2
# Flag-tagged STRADβ = target: T2, Flag-tagged STRADβ; assay: heterotrimeric complex purified through GST-LKB1 from co-transfected 293 cells, colloidal blue gel and blots
# Procedure: (§3) FIG. 4. MO25α is associated with LKB1 through STRAD (A) 293 cells were transfected with plasmids encoding for the expression of the indicated GST fusion proteins together with Myc-MO25α. 36 h post transfection, the GST tagged proteins were affinity purified from the cell lysates using glutathione-Sepharose as described in Materials and Methods. […] 5 μg of total cell lysates prior to affinity purification were also subjected to immunoblotting with anti-Myc antibody to ensure that Myc-MO25α was expressed at similar levels in each co-transfection (lower panel). (B) N-terminal GST tagged LKB1 was expressed in 293 cells in the presence or absence of Flag-STRADα and purified as above. The purified proteins were subjected to SDS-polyacrylamide gel electrophoresis and visualised by Colloidal blue staining (upper panel). The faint protein band indicated, corresponding to an endogenous protein of 40-kDa (marked *), was identified by tryptic peptide mass-spectral fingerprint as endogenously expressed MO25α (with 38% sequence coverage). The purified proteins were also immunoblotted with the indicated antibodies (lower panels). (C) As above except that GST-LKB1 was expressed in 293 cells together with the indicated isoforms of Flag-STRAD and Myc-MO25 and the proteins visualised by colloidal blue staining were also immunoblotted with the indicated antibodies. For all panels, similar results were obtained in at least 3 separate experiments.
# (§4) Expression of GST-fusion proteins in 293 cells and affinity purification. 10-cm diameter dishes of 293 cells were transiently transfected with 3 to 10 μg of the pEBG-2T constructs using a modified calcium phosphate method (Alessi et al., 1996). 36 h post-transfection, the cells were lysed and the clarified lysates were incubated for 1 h on a rotating platform with glutathione-Sepharose (25 μl/dish of lysate) previously equilibrated in lysis Buffer.
# Flag-tagged STRADα = target: T3, Flag-tagged STRADα; assay: as above
# Procedure: as §3, §4
# [3] = target: T4, GST-STRADα lacking the last 3 amino …; assay: GST pull-down from co-transfected 293 cells, anti-Myc blot
# Procedure: 5 μg of the total cell lysates prior to affinity purification were also subjected to immunoblotting with anti-Myc antibody to ensure that Myc-MO25α was expressed at similar levels in each condition (lower panel). (B) 0.5 mg of the indicated cell lysates was incubated with 5 μg of an N-terminal biotinylated peptide encompassing either the C-terminal 12 residues STRADα conjugated to streptavidin-Sepharose ([…], termed STRADα-C12) or mutants of this peptide in which the indicated residues were individually mutated to Ala. Following isolation and washing of the beads, the samples were subjected to SDS-polyacrylamide gel electrophoresis and immunoblotted with an anti-MO25α antibody. (C) Binding of bacterially expressed MO25α to the indicated peptides was analysed by surface plasmon resonance BiaCore analysis as described in Materials and Methods. […] WEF-C12 corresponds to […], WEA-C12 corresponds to […], AEF-C12 corresponds to […], WAF-C12 corresponds to […], WEF-C6 corresponds to VDDWEF.
# Expression of GST-fusion proteins in 293 cells and affinity purification. 10-cm diameter dishes of 293 cells were transiently transfected with 3 to 10 μg of the pEBG-2T constructs using a modified calcium phosphate method (Alessi et al., 1996). […]
binding result [1],binding result [2],binding result (Flag-tagged STRADβ),binding result (Flag-tagged STRADα),binding result [3],Binder
no binding,,,,,B1
,no binding,binds,binds,no binding,"N-terminal Myc-tagged MO25α (other, human, UniProt Q9Y376 1-341, looked up, also called Myc-MO25α; myc-MO25α; not shown: only the DNA primer is printed) MPFPFGKSHKSPADIVKNLKESMAVLEKQDISDKKAEKATEEVSKNLVAMKEILYGTNEKEPQTEAVAQLAQELYNSGLLSTLVADLQLIDFEGKKDVAQIFNNILRRQIGTRTPTVEYICTQQNILFMLLKGYESPEIALNCGIMLRECIRHEPLAKIILWSEQFYDFFRYVEMSTFDIASDAFATFKDLLTRHKLLSAEFLEQHYDRFFSEYEKLLHSENYVTKRQSLKLLGELLLDRHNFTIMTKYISKPENLKLMMNLLRDKSRNIQFEAFHVFKVFVANPNKTQPILDILLKNQAKLIEFLSKFQNDRTEDEQFNDEKTYLVKQIRDLKRPAQQEA"
